Reference: patent US20210277118A1 (Daiichi Sankyo, published 2021)
Numbering of substitutions follows the chain as printed. In names and notes the source's numbering stands.

B1: variant 18346, monovalent anti-CD3 scFv-heterodimeric Fc (VL hC3E-1 wildtype, VH hC3E-1 wildtype) (Fc fusion)
scFv: EVQLVESGGGLVQPGGSLRLSCAASGVTFNYYGMSWIRQAPGKGLEWVASITNSGGRIYYPDSVKGRFTISRENTQKTLYLQMNSLRAEDTAVYYCTLDGRDGWVAYWGQGTLVTVSSGGGGSGGGGSGGGGSNFMLTQPHSVSESPGKTVTISCKRNTGNIGSNYVNWYQQHEGSSPTTIIYRDDKRPDGVSDRFSGSIDRSSKSASLTISNLKTEDEADYFCQSYSSGFIFGGGTKLTVL
notes: scFv order VH-(GGGGS)3-VL on Fc chain A; chain B is Fc only; also called v18346; parental construct v18346; not shown: Fc-only chain B is also left out
B2: variant 18596, monovalent anti-CD3 scFv-heterodimeric Fc (VL hC3E-1, VH hC3E-1a D102E) (Fc fusion, not shown: a dimerising Fc or GST; small tags and cut ends)
scFv: B1 scFv with D102E
notes: scFv order VH-(GGGGS)3-VL on Fc chain A; chain B is Fc only; also called v18596
B3: variant 21826, monovalent anti-CD3 scFv-heterodimeric Fc (VL hC3E-1 (D52N), VH hC3E-1(N53R_D102E)) (Fc fusion)
scFv: B1 scFv with N53R, D102E, D185N
notes: scFv order VH-(GGGGS)3-VL on Fc chain A; chain B is Fc only; also called v21826; not shown: Fc-only chain B is also left out
B4: variant 21828, monovalent anti-CD3 scFv-heterodimeric Fc (VL hC3E-1 (D52N), VH hC3E-1(N53S_D102E)) (Fc fusion)
scFv: B1 scFv with N53S, D102E, D185N
notes: scFv order VH-(GGGGS)3-VL on Fc chain A; chain B is Fc only; also called v21828; not shown: Fc-only chain B is also left out
B5: variant 18343, monovalent anti-CD3 scFv-heterodimeric Fc (VL hC3E-1-1L1, VH hC3E-1) (Fc fusion, not shown: a dimerising Fc or GST; small tags and cut ends)
scFv: EVQLVESGGGLVQPGGSLRLSCAASGVTFNYYGMSWIRQAPGKGLEWVASITNSGGRIYYPDSVKGRFTISRENTQKTLYLQMNSLRAEDTAVYYCTLDGRDGWVAYWGQGTLVTVSSGGGGSGGGGSGGGGSQSVLTQPPSASGTPGQRVTISCKRNTGNIGSNYVNWYQQLPGTAPKLLIYRDDKRPDGVPDRFSGSKSGTSASLAISGLQSEDEADYYCQSYSSGFIFGGGTKLTVL
notes: scFv order VH-(GGGGS)3-VL on Fc chain A; chain B is Fc only; also called v18343
B6: variant 19370, monovalent anti-CD3 scFv-heterodimeric Fc (VL hC3E-1_1L1d, VH hC3E-1) (Fc fusion, not shown: a dimerising Fc or GST; small tags and cut ends)
scFv: B5 scFv with S135V
notes: scFv order VH-(GGGGS)3-VL on Fc chain A; chain B is Fc only; also called v19370
B7: variant 21827, monovalent anti-CD3 scFv-heterodimeric Fc (VL hC3E-1_1L1d, VH hC3E-1(N53S_D102E)) (Fc fusion)
scFv: B5 scFv with N53S, D102E, S135V
notes: scFv order VH-(GGGGS)3-VL on Fc chain A; chain B is Fc only; also called v21827; not shown: Fc-only chain B is also left out
B8: variant 21825, monovalent anti-CD3 scFv-heterodimeric Fc (VL hC3E-1_1L1d, VH hC3E-1(N53R_D102E)) (Fc fusion)
scFv: B5 scFv with N53R, D102E, S135V
notes: scFv order VH-(GGGGS)3-VL on Fc chain A; chain B is Fc only; also called v21825; not shown: Fc-only chain B is also left out
B9: variant 19372, monovalent anti-CD3 scFv-heterodimeric Fc (VL hC3E-1_1L1b, VH hC3E-1) (Fc fusion)
scFv: B5 scFv with S135L
notes: scFv order VH-(GGGGS)3-VL on Fc chain A; chain B is Fc only; also called v19372; not shown: The Fc-only chain B is not tied by number to this variant
B10: variant 21831, monovalent anti-CD3 scFv-heterodimeric Fc (VL hC3E-1_1L1d, VH hC3E-1(N53S)) (Fc fusion)
scFv: B5 scFv with N53S, S135V
notes: scFv order VH-(GGGGS)3-VL on Fc chain A; chain B is Fc only; also called v21831; not shown: Fc-only chain B is also left out
B11: variant 19371, monovalent anti-CD3 scFv-heterodimeric Fc (VL hC3E-1_1L1c, VH hC3E-1) (Fc fusion)
scFv: B5 scFv with S135I
notes: scFv order VH-(GGGGS)3-VL on Fc chain A; chain B is Fc only; also called v19371; not shown: The Fc-only chain B is not tied by number to this variant
B12: variant 19373, monovalent anti-CD3 scFv-heterodimeric Fc (VL hC3E-1_1L1a, VH hC3E-1) (Fc fusion)
scFv: B5 scFv with S135F
notes: scFv order VH-(GGGGS)3-VL on Fc chain A; chain B is Fc only; also called v19373; not shown: The Fc-only chain B is not tied by number to this variant
B13: variant 21829, monovalent anti-CD3 scFv-heterodimeric Fc (VL hC3E-1_1L1d, VH hC3E-1(N53R)) (Fc fusion)
scFv: B5 scFv with N53R, S135V
notes: scFv order VH-(GGGGS)3-VL on Fc chain A; chain B is Fc only; also called v21829; not shown: Fc-only chain B is also left out
B14: variant 19363, monovalent anti-CD3 scFv-heterodimeric Fc (VL hC3E-1_6L3a (D52N), VH hC3E-1) (Fc fusion, not shown: a dimerising Fc or GST; small tags and cut ends)
scFv: EVQLVESGGGLVQPGGSLRLSCAASGVTFNYYGMSWIRQAPGKGLEWVASITNSGGRIYYPDSVKGRFTISRENTQKTLYLQMNSLRAEDTAVYYCTLDGRDGWVAYWGQGTLVTVSSGGGGSGGGGSGGGGSQFVLTQPPSASGTPGQRVTISCKRNTGNIGSNYVNWYQQLPGTAPKTIIYRNDKRPDGVPDRFSGSIDSSSNSASLAISGLQSEDEADYYCQSYSSGFIFGGGTKLTVL
notes: scFv order VH-(GGGGS)3-VL on Fc chain A; chain B is Fc only; also called v19363
B15: variant 19362, monovalent anti-CD3 scFv-heterodimeric Fc (VL hC3E-1_6L3b (D52N), VH hC3E-1) (Fc fusion, not shown: a dimerising Fc or GST; small tags and cut ends)
scFv: B14 scFv with Q134N, V136M, P141H, A143V, G145E, T146S, Q149K, R150T
notes: scFv order VH-(GGGGS)3-VL on Fc chain A; chain B is Fc only; also called v19362

What was measured:
[1] = target: T1, Recombinant CD3epsilon/delta Fc fusion protein (Sino Biological) (human, UniProt P07766 23-126; P04234 22-105); assay: SPR (ProteOn XPR36), Equilibrium Fit, mean of three runs
T1 construct: Bought reagent; also called recombinant CD3 fusion protein; human CD3 antigen; not shown: Fc of the bought fusion protein; not described
T1 sequence (P07766 23-126, stated change not applied, chain 1 of 2): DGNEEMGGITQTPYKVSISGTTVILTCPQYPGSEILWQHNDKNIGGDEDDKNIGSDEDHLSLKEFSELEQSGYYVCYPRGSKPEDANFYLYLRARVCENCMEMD
T1 sequence (P04234 22-105, stated change not applied, chain 2 of 2): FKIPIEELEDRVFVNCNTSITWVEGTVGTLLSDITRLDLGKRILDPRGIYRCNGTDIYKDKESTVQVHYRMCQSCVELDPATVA
Protocol: (§1) All SPR binding experiments were carried out using a BioRad ProteOn XPR36 instrument (Bio-Rad Laboratories, Hercules, Calif.) at 25° C. with 10 mM HEPES, 150 mM NaCl, 3.4 mM EDTA, and 0.05% Tween 20 at pH 7.4. Recombinant CD3epsilon/delta Fc fusion protein (Sino Biological, Wayne, Pa.) was captured on anti-Fc capture sensorchips. Purified antibodies were indirectly captured on the sensorchip by binding the recombinant CD3 fusion protein when injected at 25 μL/min for 240s (resulting in approx. 500 RUs) following a buffer injection to establish a stable baseline. Resultant KD values were determined from binding isotherms using the Equilibrium Fit model with reported values as the mean of three independent runs.

[2] = target: T2, cynomolgus monkey CD3 expressed on T cells (cynomolgus pan T cells/PBMC, HSC-F cell line) (cynomolgus monkey, UniProt Q95LI5 22-198); assay: flow cytometry on cynomolgus T cells
T2 construct: whole, on cells; On T cells in the CD3 complex with the other subunits; only the epsilon chain is written out; also called cyno CD3; cyno T cells
T2 sequence (Q95LI5 22-198): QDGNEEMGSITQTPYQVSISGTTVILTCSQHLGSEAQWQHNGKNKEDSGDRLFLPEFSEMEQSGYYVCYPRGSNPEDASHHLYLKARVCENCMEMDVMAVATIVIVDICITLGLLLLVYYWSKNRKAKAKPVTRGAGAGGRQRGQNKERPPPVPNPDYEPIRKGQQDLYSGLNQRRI
Protocol: (§2) Frozen Cynomolgus monkey PBMCs were thawed then washed with RPMI-1640 media. Pan T cells were then isolated from the PBMCs using a negative isolation kit (Miltenyi Biotec, San Diego, Calif.) as per the manufacturer's instructions. The pan T cells were incubated in media alone or media containing serial dilutions of the anti-CD3 scFv-Fc constructs for one hour at 4° C. Commercially available SP34-2 antibody was used as positive controls while untreated cultures were used as negative controls. Following incubation with the anti-CD3 scFv constructs, the cells were washed and stained with a panel of conjugated antibodies specific for CD4, CD8, and IgG-Fc. The samples were acquired on a flow cytometer and analyzed using FlowJo version 10.1 software.

[3] = target: T3, human CD3 expressed on T cells (Jurkat cells, human pan T cells/PBMC) (human, UniProt P07766 23-207); assay: flow cytometry on human T cells
T3 construct: whole, on cells; On T cells CD3 epsilon stands in the CD3 complex with the gamma, delta and zeta chains and the T-cell receptor; only the epsilon chain is written out; also called CD3+ Jurkat cells; human T cells
T3 sequence (P07766 23-207): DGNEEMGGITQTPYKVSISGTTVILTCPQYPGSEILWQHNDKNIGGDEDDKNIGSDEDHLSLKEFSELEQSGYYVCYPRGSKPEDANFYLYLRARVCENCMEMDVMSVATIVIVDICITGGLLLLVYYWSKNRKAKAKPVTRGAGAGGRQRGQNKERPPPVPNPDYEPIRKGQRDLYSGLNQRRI
Protocol: (§3) Frozen human pan T cells or PBMCs were thawed and incubated with either media or serial dilutions of the anti-CD3 scFv-Fc constructs for one hour at 4° C. Commercially available SP34-2 antibody was used as positive controls while untreated cultures were used as negative controls. Following incubation with the anti-CD3 scFv constructs, the cells were washed and stained with a panel of conjugated antibodies specific for CD4, CD8, and IgG-Fc. The samples were acquired on a flow cytometer and analyzed using FlowJo version 10.1 software.

[4] = target: T2, cynomolgus monkey CD3 expressed on T …; assay: flow cytometry on cynomolgus pan T cells gated CD4+, detection with anti-IgG-Fc, geo MFI
Protocol: as §2

[5] = target: T1, Recombinant CD3epsilon/delta Fc fusion …; assay: SPR (ProteOn XPR36), CD3epsilon/delta Fc fusion captured on anti-Fc chip, variant injected for 240 s; kinetic constants printed above the sensorgrams
Protocol: as §1

[6] = target: T3, human CD3 expressed on T cells (Jurkat …); assay: cell ELISA on CD3+ Jurkat cells
Protocol: Cells were centrifuged and seeded in a 96-well filter plate in 50% complete culture medium/50% Blocking buffer. Equal volumes of 2× anti-CD3 scFv-Fc constructs or controls were added to cells and incubated for 1 hour. The plate was washed 4 times using vacuum filtration. An HRP-conjugated anti-human IgG Fc gamma specific secondary antibody was added to the wells and further incubated for 1 hour. The plate is washed 7 times by vacuum filtration followed by the addition of TMB substrate at room temperature. The reaction was stopped by adding 1 M sulfuric acid and supernatant was transferred into a clear 96-well plate. Absorbance (450 nm) was read on a Spectramax 340PC plate reader with path-check correction. Binding of the different scFv-Fc constructs to Jurkat cells and the apparent binding affinities are shown in FIG. 7 and Table 7, respectively.

[7] = target: T3, human CD3 expressed on T cells (Jurkat …); assay: flow cytometry on human T cells gated CD4+, detection with anti-IgG-Fc, geo MFI
Protocol: as §3

Row | Binder | Kd [1] [nM] | EC50 [2] [nM] | EC50 [3] [nM] | EC50 (read off the curve) [4] [µg/mL] | Kd [5] [nM] | koff [5] [s⁻¹] | kon [5] [M⁻¹ s⁻¹] | EC50 [6] [nM] | EC50 (read off the curve) [7] [µg/mL]
1 | B1 | 0.26 | 1.4 | ~0.3 | ~1 | 0.117 | 0.000163 | 1.39e+06 | 0.34 | –
2 | B2 | 9 | 172 | 69.5 | – | – | – | – | 2.57 | –
3 | B3 | – | 2.5 | 1.7 | – | – | – | – | ~36100 | –
4 | B4 | – | 104 | 1.6 | – | – | – | – | ~32.8 | –
5 | B5 | 30 | – | – | – | – | – | – | 2.61 | –
6 | B6 | 6.8 | 2.4 | 0.7 | – | – | – | – | 3.09 | –
7 | B7 | – | 16.3 | 1.9 | – | – | – | – | – | –
8 | B8 | – | 7 | – | – | – | – | – | – | –
9 | B9 | 3.1 | 9.3 | 0.9 | – | – | – | – | 3.47 | –
10 | B10 | 22.9 | 40.7 | 1 | – | 23 | 0.0225 | 977000 | 3.96 | ~1
11 | B11 | 7.1 | 3.4 | 0.5 | – | – | – | – | 1.72 | –
12 | B12 | 3 | – | – | – | – | – | – | 0.99 | –
13 | B13 | 3.06 | 1.6 | 0.4 | – | 3.12 | 0.00382 | 1.22e+06 | 0.65 | –
14 | B14 | 6.6 | 7.1 | 0.7 | – | 6.62 | 0.00383 | 578000 | 1.45 | –
15 | B15 | 3 | 1.9 | ~0.6 | ~2 | 3.03 | 0.00242 | 798000 | 1.35 | –
